{"source": "patent US10982244B2", "about": "“Modified homoserine dehydrogenase and method for producing homoserine or L-amino acid derived from homoserine using the same” (CJ CHEILJEDANG CORPORATION, priority 2018, dated 2021)", "molecular_target": "T1, homoserine dehydrogenase (Hom) (Corynebacterium glutamicum, UniProt P08499, R407H)", "T1 construct": "each supernatant was recovered through two centrifugations (13,000 rpm, 4° C., 30 minutes) and used as a crude extract for measuring the activity of Hom; endogenous in cells; host or cells: Crude cell extracts of Corynebacterium glutamicum ATCC13032 (wild type) and of CA09-0900 (ATCC13032 with chromosomal hom R407H)", "assay": "Measurement of Hom activity (U) and desensitization by L-threonine in crude extracts", "assay_type": "biochemical", "details": "10 mM L-threonine, compared with wild-type Hom", "method": "The activity of the enzyme Hom was measured in the prepared strain. The wild-type strain ATCC13032 (the control group) and the CA09-0900 strain prepared in Example 4 were each inoculated into 25 mL of the seed medium and cultured until the strains reached the late log phase. The cells of each strain were recovered by centrifugation, washed twice with a 0.1 M potassium phosphate buffer (pH 7.6), and finally suspended in 2 mL of the same buffer containing glycerol at a concentration of 30%. Each cell suspension was physically disrupted by a conventional glass bead vortexing method for 10 minutes, and each supernatant was recovered through two centrifugations (13,000 rpm, 4° C., 30 minutes) and used as a crude extract for measuring the activity of Hom. For the measurement of the activity of Hom, a […] (0.1 mL) was added to a reaction solution for measuring the enzyme activity (a potassium phosphate (pH 7.0) buffer, 25 mM NADPH, 5 mM aspartate semi-aldehyde) and reacted at 30° C. The Hom enzyme activity U was defined as the number of NADPH consumed per minute according to the presence of L-threonine (0 mM, 10 mM), and the measurement results of the enzyme activity are shown in Table 2 below."}
{"molecule": "Hom including the R407H modification: modified homoserine dehydrogenase, arginine at position 407 substituted with histidine (protein, homoserine dehydrogenase R407H, modified homoserine dehydrogenase, arginine at position 407 substituted with histidine) MTSASAPSFNPGKGPGSAVGIALLGFGTVGTEVMRLMTEYGDELAHRIGGPLEVRGIAVSDISKPREGVAPELLTEDAFALIEREDVDIVVEVIGGIEYPREVVLAALKAGKSVVTANKALVAAHSAELADAAEAANVDLYFEAAVAGAIPVVGPLRRSLAGDQIQSVMGIVNGTTNFILDAMDSTGADYADSLAEATRLGYAEADPTADVEGHDAASKAAILASIAFHTRVTADDVYCEGISNISAADIEAAQQAGHTIKLLAICEKFTNKEGKSAISARVHPTLLPVSHPLASVNKSFNAIFVEAEAAGRLMFYGNGAGGAPTASAVLGDVVGAARNKVHGGRAPGESTYANLPIADFGETTTRYHLDMDVEDRVGVLAELASLFSEQGISLRTIRQEERDDDAHLIVVTHSALESDLSRTVELLKAKPVVKAINSVIRLERD", "values": [{"measurement": "desensitization to L-threonine", "value": "the inhibition of the activity was reduced"}]}
